Test results: paper PMC7504508
Where two headings read alike, the source gives them in different places.

Assays:
[1] = molecular target: GST-Sumo fusion protein of the perch Connexin 35 C-terminal domain (amino acids 251-304), wild type (perch); assay: SPR; GST-Sumo-Cx35 fusion proteins captured by immobilised anti-GST antibodies on a CM5 chip (Biacore 2000); calmodulin as analyte, 3 nM to 30 µM; GST-Sumo reference flowcell subtracted; 1 mM free Ca2+, 0.5 mM free Mg2+, 140 mM KCl, 10 mM MOPS pH 7.2, 0.05% Tween 20; first order ligand binding …
[2] = molecular target: GST-Sumo fusion protein of the perch Cx35 C-terminal domain (251-304) V267A (perch); assay: as above
[3] = molecular target: GST-Sumo fusion protein of the perch Cx35 C-terminal domain (251-304) I277A (perch); assay: as above
[4] = molecular target: GST-Sumo fusion protein of the perch Cx35 C-terminal domain (251-304) R268A (perch); assay: as above
[5] = molecular target: GST-Sumo fusion protein of the perch Connexin 35 C-terminal domain (amino acids 251-304), wild type (perch); assay: as above; remark: listed apart in the source
[6] = molecular target: GST-Sumo fusion protein of the perch Cx35 C-terminal domain (251-304) V270A, Q271A (perch); assay: as above
[7] = molecular target: GST-Sumo fusion protein of the perch Connexin 35 C-terminal domain (amino acids 251-304), wild type (perch)

## calmodulin (from UniProt P0DP23 1-149) (natural protein)
[1]
  Kd: 1430 nM
[2]
  Kd: 5390 nM
[3]
  Kd: 1260 nM
[4]
  Kd: 2460 nM
[5]
  Kd: 1380 nM
[6]
  Kd: 1190 nM
[7]
  reduction of Neurobiotin tracer coupling by 5 µM ionomycin in transiently transfected HeLa cells (full-length untagged Cx35 wild type in the cells): 67%
